Results as given in publication PMC8800115, “The ASCC2 CUE domain in the ALKBH3–ASCC DNA repair complex recognizes adjacent ubiquitins in K63-linked polyubiquitin” (The Journal of Biological Chemistry, 2021).

Biological target: T1, K63-linked diubiquitin (UniProt P0CG48 1-76; P0CG48 1-76, K48R | K63R | D77 extension, distal ubiquitin: C-terminal G76 in an isopeptide bond with K63 of the proximal ubiquitin | proximal ubiquitin: K63 in an isopeptide bond with G76 of the distal ubiquitin)
T1 construct: ubiquitin, residues 1 to 76, K48R/K63R; distal position of K63Ub2; ubiquitin, residues 1 to 76, with a D77 extension; proximal position of K63Ub2; Two ubiquitins joined covalently; For NMR either the distal or the proximal ubiquitin was 15N-labelled; also called K63Ub2; WT K63Ub2
Experiment: ITC; MicroCal iTC200; proteins dialysed in 20 mM Hepes pH 7.5, 150 mM NaCl, 200 μM TCEP; 2-μl injections; who was in the cell is not given; ranges of Kd are from fits with N fixed to 1 (first value: active concentration in the cell varied, second: in the syringe); Kd of S470R and E467R/S470R called apparent
Settings: both partners purified

B1: full-length ASCC2 (natural protein, human, UniProt Q9H1I8 1-757, looked up)
chain: MPALPLDQLQITHKDPKTGKLRTSPALHPEQKADRYFVLYKPPPKDNIPALVEEYLERATFVANDLDWLLALPHDKFWCQVIFDETLQKCLDSYLRYVPRKFDEGVASAPEVVDMQKRLHRSVFLTFLRMSTHKESKDHFISPSAFGEILYNNFLFDIPKILDLCVLFGKGNSPLLQKMIGNIFTQQPSYYSDLDETLPTILQVFSNILQHCGLQGDGANTTPQKLEERGRLTPSDMPLLELKDIVLYLCDTCTTLWAFLDIFPLACQTFQKHDFCYRLASFYEAAIPEMESAIKKRRLEDSKLLGDLWQRLSHSRKKLMEIFHIILNQICLLPILESSCDNIQGFIEEFLQIFSSLLQEKRFLRDYDALFPVAEDISLLQQASSVLDETRTAYILQAVESAWEGVDRRKATDAKDPSVIEEPNGEPNGVTVTAEAVSQASSHPENSEEEECMGAAAAVGPAMCGVELDSLISQVKDLLPDLGEGFILACLEYYHYDPEQVINNILEERLAPTLSQLDRNLDREMKPDPTPLLTSRHNVFQNDEFDVFSRDSVDLSRVHKGKSTRKEENTRSLLNDKRAVAAQRQRYEQYSVVVEEVPLQPGESLPYHSVYYEDEYDDTYDGNQVGANDADSDDELISRRPFTIPQVLRTKVPREGQEEDDDDEEDDADEEAPKPDHFVQDPAVLREKAEARRMAFLAKKGYRHDSSTAVAGSPRGHGQSRETTQERRKKEANKATRANHNRRTMADRKRSKGMIPS
notes: source: E. coli Rosetta (DE3), purified (HisTrap, Superdex 200)
- stoichiometry N: 1 ASCC2 per K63Ub2
